In the test the target is RTP1S_C2-Strep (TM domain deletion mutant of RTP1S, 1-176 amino acids, with a Strep-tag at the C terminus) (mouse). The experiment in a line: SEC-MALS; OH-Pak SB-804HQ column, 100 μl of 0.3 mg/ml, 20 mM phosphate buffer pH 8.0, 100 mM NaCl.

Drawing on publication PMC6779431, this text covers stoichiometry N for 1 substance.

As to “RTP1S_C2-Strep (TM domain deletion mutant of RTP1S, 1-176 amino acids, with a Strep-tag at the C terminus) (domain or fragment)”, the stoichiometry N came out at 2.
